Reference: patent publication US20240076386A1 (Pfizer, published 2024)

T1: cynomolgus monkey E-selectin extracellular domain with 10 His purification tail (cynomolgus monkey, UniProt P16581 22-554 (human entry))
T1 construct: also called cynomolgus E-selectin; truncated cynomolgus monkey E-selectin
T1 chain: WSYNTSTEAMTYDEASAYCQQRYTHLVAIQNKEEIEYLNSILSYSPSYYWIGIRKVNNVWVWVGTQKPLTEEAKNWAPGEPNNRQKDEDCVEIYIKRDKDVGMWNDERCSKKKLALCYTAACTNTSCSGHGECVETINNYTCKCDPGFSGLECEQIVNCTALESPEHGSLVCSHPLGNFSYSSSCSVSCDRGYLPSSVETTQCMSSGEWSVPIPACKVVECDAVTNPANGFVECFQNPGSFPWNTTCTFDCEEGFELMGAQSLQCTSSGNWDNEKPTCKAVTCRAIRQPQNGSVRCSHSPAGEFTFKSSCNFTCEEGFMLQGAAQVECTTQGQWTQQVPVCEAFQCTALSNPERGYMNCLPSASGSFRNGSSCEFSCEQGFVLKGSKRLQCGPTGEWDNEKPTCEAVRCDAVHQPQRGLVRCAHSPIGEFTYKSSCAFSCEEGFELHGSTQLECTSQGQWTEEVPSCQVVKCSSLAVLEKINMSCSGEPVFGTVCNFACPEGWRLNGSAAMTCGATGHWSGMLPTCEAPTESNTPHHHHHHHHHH

T2: recombinant histidine-tagged cynomolgus monkey E-selectin (Sino Biologicals; 190169-C08H) (cynomolgus monkey, UniProt A0A2K5U7H9 22-554)
T2 construct: also called recombinant cynomolgus monkey E-selectin
T2 sequence: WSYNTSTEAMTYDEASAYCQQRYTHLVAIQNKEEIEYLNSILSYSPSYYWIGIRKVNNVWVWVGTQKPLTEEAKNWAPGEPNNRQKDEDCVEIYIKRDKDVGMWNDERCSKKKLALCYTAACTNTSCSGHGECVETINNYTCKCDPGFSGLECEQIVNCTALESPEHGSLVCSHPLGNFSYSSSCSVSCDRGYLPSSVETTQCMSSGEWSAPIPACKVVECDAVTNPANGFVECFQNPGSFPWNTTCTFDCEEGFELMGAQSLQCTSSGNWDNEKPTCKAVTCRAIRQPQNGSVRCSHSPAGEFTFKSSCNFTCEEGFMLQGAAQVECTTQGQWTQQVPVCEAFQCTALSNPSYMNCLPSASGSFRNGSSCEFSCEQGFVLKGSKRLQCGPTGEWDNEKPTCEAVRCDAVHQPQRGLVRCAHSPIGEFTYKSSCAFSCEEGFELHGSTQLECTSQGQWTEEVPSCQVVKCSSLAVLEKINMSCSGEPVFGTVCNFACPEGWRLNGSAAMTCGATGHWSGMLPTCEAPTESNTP

T3: human P-selectin expressed on CHO cells (human, UniProt P16109 42-830)
T3 construct: whole, on cells; also called CHO-human P-selectin cells; CHO-P-selectin cells
T3 sequence (looked up): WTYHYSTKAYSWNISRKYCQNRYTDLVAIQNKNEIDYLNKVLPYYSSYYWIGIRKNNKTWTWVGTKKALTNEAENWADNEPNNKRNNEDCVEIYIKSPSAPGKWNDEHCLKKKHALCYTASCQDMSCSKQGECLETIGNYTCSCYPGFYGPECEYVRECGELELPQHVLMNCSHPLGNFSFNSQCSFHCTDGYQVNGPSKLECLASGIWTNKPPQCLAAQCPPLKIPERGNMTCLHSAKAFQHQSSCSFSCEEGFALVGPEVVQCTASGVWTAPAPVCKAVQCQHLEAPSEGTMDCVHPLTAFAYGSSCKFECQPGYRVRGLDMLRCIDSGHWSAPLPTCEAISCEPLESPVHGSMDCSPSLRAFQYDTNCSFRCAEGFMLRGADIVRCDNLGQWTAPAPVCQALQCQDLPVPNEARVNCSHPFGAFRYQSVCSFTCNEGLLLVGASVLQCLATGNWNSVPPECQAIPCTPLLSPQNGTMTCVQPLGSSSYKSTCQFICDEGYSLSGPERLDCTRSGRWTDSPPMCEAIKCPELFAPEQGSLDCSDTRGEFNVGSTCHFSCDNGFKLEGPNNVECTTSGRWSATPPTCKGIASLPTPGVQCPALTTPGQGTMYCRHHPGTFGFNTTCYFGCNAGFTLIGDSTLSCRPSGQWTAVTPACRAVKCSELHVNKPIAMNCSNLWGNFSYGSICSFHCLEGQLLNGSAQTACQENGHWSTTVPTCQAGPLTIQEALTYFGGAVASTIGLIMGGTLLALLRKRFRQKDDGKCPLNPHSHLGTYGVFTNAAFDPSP


What was measured:
[1] = biological target: T1, cynomolgus monkey E-selectin …; test: AlphaLISA competition vs sialyl Lewis A-PAA-biotin; AlphaLISA neutralization assay (ligand competition), not SPR
Experimental: The neutralization ability of anti-E-selectin antibodies was measured in an AlphaLISA homogenous competition assay. […] This was incubated at room temperature for 15 minutes, followed by addition of 1.4 μL of human, mouse or cynomolgus monkey E-selectin added to a final concentration of 7 nM. This was again incubated at room temperature for 15 minutes. To this, 1.4 μL AlphaLISA beads was added (Ni-donor/SA-acceptor) for a final assay concentration of 10 μg/mL. This was incubated in the dark at room temperate for at least 10 hours. The plates were then read using the AlphaLISA protocol (Envision).

[2] = biological target: T2, recombinant histidine-tagged cynomolgus …; test: direct binding ELISA, further assay
Experimental: Recombinant histidine tagged human P-, E- or L-selectin (Sino Biologicals), mouse E-selectin (Sino Biologicals), rat E-selectin (Sino Biologicals) and Cynomolgus monkey E-selectin (Sino Biologicals) stock solutions were prepared to a final concentration of 1 μg/mL in phosphate buffered saline without calcium and magnesium. Controls included an L-selectin directed antibody (BioLegend; 304811) or P-selectin directed antibody or a negative control IgG. One hundred μL per well of the diluted recombinant selectin proteins were added into a Ni-NTA HisSorb 96 well plate (Qiagen; 35061). Plates were incubated on an orbital shaker at room temperature for 2 hours. Following the incubation, the plates were washed 3 times with 200 μL of wash buffer (50 mM TRIS [trisaminomethane]; 150 mM sodium chloride; 0.05% polysorbate 20, pH 7.4). […] Anti L-selectin and anti-rat-E-selectin antibodies were detected using 1 to 25000 dilution of Peroxidase-conjugated AffiniPure Goat Anti-Mouse IgG (H+L); (Jackson ImnnunoResearch Lab).
Plates were washed and 100 μL per well of 1-Step Ultra TMB substrate (Thermo Scientific) was added and incubated for 5 minutes at room temperature. Reactions were stopped with 100 μL of 2 M sulfuric acid and absorbance read at 450 nm (Spectramax M5e).

[3] = biological target: T3, human P-selectin expressed on CHO cells; test: flow cytometry, CHO human P-selectin cells

EC50 [1] | EC50 [2] | binding result [3] | Binder
< 1000 pM | – | – | anti-E-selectin antibody 0158 chimera (antibody, human IgG1, kappa, V domains shown, rat VH/VL on effector-null human IgG1 and human kappa) VH: QVQLKESGPGLVQPSETLSLTCTVSGFSISTYNVHWLRQPPGKGLEWMGMMWSGGSPDYNSALKSRLSISRDTSKNQVFLKMNSLQSEDTTTYYCARWGGGFDYWGQGVMVTVSS VL: DIVLTQSPTTLSVTPGETVSLSCRASHSIGTNLHWYQQKTNESPRLLIKFTSQSISGIPSRFSASGSGTDFTLNINNVEFDDVSSYFCQQTQSWPLTFGSGTKLEIKR
– | 71 to 75 pM | no binding | optimized anti-E-selectin antibody 1444 (antibody, human IgG1, kappa, V domains shown, effector-null human IgG1, kappa) VH: EVQLVESGGGLVQPGGSLRLSCAASGYAIRSAYMHWVRQAPGKGLEWVARIDPANGNTIYVDSVTGRFTISADNAKNSAYLQMNSLRAEDTAVYYCAMDLYSTSEYWGQGTLVTVSS VL: DIQMTQSPSSLSASVGDRVTITCKTSQNIERYLNWYQQKPGKAPKLLIYAASSLQSGVPSRFSGSGSGTDFTLTISSLQPEDFATYFCLQDNAWPLTFGQGTKVEIKR
